Source: publication doi:10.1101/492876

Legend:
[1] = biological target: elongation factor thermo-unstable (EF-Tu), hexahistidine-tagged (E. coli) (UniProt P0CE47); assay: SEC
[2] = biological target: preformed oligomeric EF-Tu (^OligoEF-Tu) (E. coli) (UniProt P0CE47); assay: ITC

Row | stoichiometry N [1] | Kd [2] [nM] | dH [2] [kcal/mol] | stoichiometry N [2] | Substance
1 | 2 | – | – | – | elongation factor thermo-unstable (EF-Tu), hexahistidine-tagged (from UniProt P0CE47 1-394) (natural protein)
2 | 1 | 580 | -18.8 | 2.37 | reduced form of Hsp33 (^RHsp33) (from UniProt P0A6Y5 1-292) (natural protein)
